Source: patent US20140349928A1 (MEDERIS DIABETES, published 2014)
Non-standard residues stand in square brackets, D forms with d. No end group written: not given here. Aib = CC(C)(N)C(=O)O

Molecular target: GLP-1 receptor
Test: cell-based or functional assay

B1: EU-A391 (peptide)
peptide: H[Aib]QGT[Me‑Phe]TSDYSKYLD[Aib]K-NH2
modifications: not fully specified (residue 17); also: 1-dodecyl beta-D-glucuronyl surfactant on a linker residue
B1 was tested, and the “EC50, cAMP generated in cells (GLP-1 cellular assay)” value was 420 nM.
